Results reported in PMC3948214 (Biochemistry, 2013).

Legend:
[1] = target: HpFabZ (Helicobacter pylori) (UniProt B5Z920); assay: SPR; conditions: cited from earlier work
crystal structure = target: the molecule itself; assay: crystal structure

HpFabZ (Helicobacter pylori), sequence (B5Z920 whole entry): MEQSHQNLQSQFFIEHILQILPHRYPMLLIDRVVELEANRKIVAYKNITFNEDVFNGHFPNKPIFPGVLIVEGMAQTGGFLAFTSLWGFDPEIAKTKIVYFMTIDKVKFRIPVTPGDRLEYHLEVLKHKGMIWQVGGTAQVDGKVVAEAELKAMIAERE

In the case of HpACP (from UniProt B5Z6T1), the Kd [1] is listed as 10 nM.

B1: RifDH10, the dehydratase domain from the terminal module (module 10) of the rifamycin polyketide synthase (domain or fragment, Amycolatopsis mediterranei, UniProt O54593 2569-2872, looked up)
chain: ADTASDAVSLGLAGADHPLLGAVVQLPQSDGLVFTSRLSLRSHPWLADHAVRDVVIVPGTGLVELAVRAGDEAGCPVLDELVIEAPLVVPRRGGVRVQVALGGPADDGSRTVDVFSLREDADSWLRHATGVLVPENRPRGTAAFDFAAWPPPEAKPVDLTGAYDVLADVGYGYGPTFRAVRAVWRRGSGNTTETFAEIALPEDARAEAGRFGIHPALLDAALHSTMVSAAADTESYGDEVRLPFAWNGLRLHAAGASVLRVRVAKPERDSLSLEAVDESGGLVVTLDSLVGRPVSNDQLTTAAG
B1: binds (crystal structure).
